Laboratory results from the domain aggregation screens of Martell et al. (2025).

Assay: soluble fraction after stress (log2 fold change); higher = more stays soluble; pooled small domains, quantitative proteomics
Details: stress: 75 degC
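Further: 20 min heating vs room temperature control held 20 min.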

Sequence	soluble fraction (log2)
HMDDLSPEENKVIGAQVREELARRRLSRQHLADKAKISLSTLEKALTGTRPFTLASVVRIEEALQLQLRK	-1.35
HMDDPEISQEQRQQLFRTAKEHFGASGNDVLKEILADHGRDSTVKMPVSVFAEIMGDLLKRALD	0.612
HMDDPQAELLARAVRRVALAAAERTRRNEYGGVYLGLFRQFGISSYRRTPPARLHEALEWLERWRGDLM	-0.134
HMDDTVILPIQINGKRRAEISVPKAMPASEVEKLALANEDVLRFLAGQPIKKLIVVPGRIINVV	0.0584
HMDDVGERIRKIREEKNLSLDEISKMTGFDVEFLAKIENKERQPQLGTVIKLSKALDSAFGRL	0.162
HMDDVGYLRKRLQQALAQLSDDLRNTYTLFQIGKQSIKQIAAETGASESLVKVRIHRAKQKLQELLADLQ	-1.47
HMDEDLQEALRKLNPIQANERKLLLKMLEQHRWNVSSVAKAFDVSRNTLYRRLHKLHIPLSNPSE	-1.33
HMDEEAIELTQEVMKLPPKQREVILLYYYHGLTGKEIAKALGISGAAVSKRLKQAKNQLHFALK	-0.282
HMDEEVLVVQEGGERLDVFVAANAEGITRSFVQNLIKKGDVTVDGAPRKANYRLRSGQVVRFSLPEP	-0.204
HMDEFEEGVITYFNSEKGFGFIRESKTKQSVFVHSKQLSSPVQLNDKVKFIVNKGLKGLEATEVSVI	-0.818
HMDEFQLTPREQEILGLLVKGYTYKRIASELNLSYATVNRHVSNVYVKLRVHSVNEAVALAVRKGL	-1.39
HMDEKLAHKLVSDFRQAAASLERFPFRNPVLRSEVFTVEKYRKLVFDKYHILLYQVKDQVVYVEYVIDGRQ	-0.94
HMDEKVTIPSVSGLLLSEAKTKLVDAGLTVETVYDDESKEAKDTVLSQSPLQYGKVDKGTVVTLTVSSGKG	0.332
HMDELPKDILRSFGLPDKPWAMELLRNLRRDGFALDGETARAYAEMAAMKPPRTDARQWMTAADVAYRRG	-0.343
HMDEMPVEFVKISIKAGHPWENRKIKDLASLPDLLLVLILRGEERIIPNGNTVVLAGDKIVLSALSPE	-2.74
HMDENILKTRIEDLDLSVRTIKALTGASIRTVSGLARKKESDLLEISGLGDKGIQEIKRALGSLGITL	-0.498
HMDENTEQESQTVVVPDVTGKSLSEAASILREAGLDYLAEQTGTVVTKQMPLPDAEVLINTTVLLYTDSE	0.143
HMDEPSITYGKVKVQTSLNVRQGPGTQYARIGSLGPNVRIQILGQEGQWYKIKYGNLQGYVHSDYVELEK	-0.026
HMDEQKNREIALIENIQREDLNPYEKALGIRNLMDKYGLTQEEVSKRIGKSRSAVSNTVRILNLAPDVL	0.125
HMDEQLAWLYRKINAFSEIDKALILLYLEDKKYDEIAETLGISSVNARVKMNRIKKRLKEMINDR	-3.14
HMDEQVETLKNLISELPKEQLEVLVMRHYEDLSFKEISEKTGVSINTALGRMRYALINIRKLMKENN	-0.145
HMDESLIEEAKAMILQMKIEGSVRVRSNGLLEFRNPLFGSVYGRSVEELQEKLNKKVREQKSRI	-0.443
HMDEVPMPPEYQYLRVGSRVHHATFGWGKVTRLSQPWPQTRAEVFFENIGPKKLVLAHAHLTMD	-3.26
HMDEYTAVDSRLDLELAMKRLKPEEAEVLRLVFDYGLPQRAIAERLGVSQMSVSRMQRRAIGKLKRWLSDN	-1.43
HMDFKKKIIESWADIAETLRGLTVDSNISDWTTKQKNAYETLADKAELAGLSIADLNSILVELGYM	-0.119
HMDFNDPTMEKSLVELPAMSNSTLRDLSENNIKKLEELAEMSVGELMDIASKISESDASALIMEARKPWF	-0.312
HMDFRVGVWVELVQQRRSVRTQLTWVSPQHTLFLFTAKDGSTQSMTLRMRDKLLAEGNLRIVAPPSR	-2.37
HMDFSENEPVTVRVLSILKNNTIRIAVKGAVLQAQTALSQDIREGAFLLMRVHITDNTVVLTPY	0.112
HMDFSNVNFSQVSDSELDLLMRRASAQGYTQFDLLKIARAQGLTQAEIEKLDKRFKSAETVAYVAENA	0.0531
HMDFTHFTLKQDGKFAGSSNLLHQAVIAAARLAAETGKPVTVMAHVRGGGTRKAVFNPDGTNDKIWN	-1.05
